Measurements from patent US20240391954A1, “MC4R AGONIST PEPTIDES” (The Regents of the University of Michigan, priority 2021, published 2024).
Starred links: 1 amine or outer side, 2 acyl side, 3 side chain; linkers in the order of their positions; H or OH if unused. Positions of bridges follow the written chain, without caps; N, C: chain ends. Non-standard residues stand in square brackets, D forms with d. dTyr(4-OMe) = O-methyl-D-tyrosine (4-OMe), COc1ccc(C[C@@H](N[*:1])C(=O)[*:2])cc1; dPhe(4-Br) = N[C@H](Cc1ccc(Br)cc1)C(=O)O; 2Pal = N[C@@H](Cc1ccccn1)C(=O)O; 3Pal = N[C@@H](Cc1cccnc1)C(=O)O; 4Pal = N[C@@H](Cc1ccncc1)C(=O)O; Cit = NC(=O)NCCC[C@H](N)C(=O)O; Nle = CCCC[C@H](N)C(=O)O; Orn = NCCC[C@H](N)C(=O)O; Aib = CC(C)(N)C(=O)O

B1: CTX-1624 (peptide)
peptide: Ac-R[Nle]CR[dTyr(4-OMe)]RFC-NH2
modifications: disulfide 3-8
SMILES: CCCC[C@H](NC(=O)[C@H](CCCNC(=N)N)NC(C)=O)C(=O)N[C@H]1CSSC[C@@H](C(N)=O)NC(=O)[C@H](Cc2ccccc2)NC(=O)[C@H](CCCNC(=N)N)NC(=O)[C@@H](Cc2ccc(OC)cc2)NC(=O)[C@H](CCCNC(=N)N)NC1=O
B2: CTX-1627 (peptide)
peptide: Ac-C[dA]R[dF]RWC-NH2
modifications: disulfide 1-7
SMILES: CC(=O)N[C@H]1CSSC[C@@H](C(N)=O)NC(=O)[C@H](Cc2c[nH]c3ccccc23)NC(=O)[C@H](CCCNC(=N)N)NC(=O)[C@@H](Cc2ccccc2)NC(=O)[C@H](CCCNC(=N)N)NC(=O)[C@@H](C)NC1=O
B3: CTX-1628 (peptide)
peptide: Ac-C[dA][Cit][dF]RWC-NH2
modifications: disulfide 1-7
SMILES: CC(=O)N[C@H]1CSSC[C@@H](C(N)=O)NC(=O)[C@H](Cc2c[nH]c3ccccc23)NC(=O)[C@H](CCCNC(=N)N)NC(=O)[C@@H](Cc2ccccc2)NC(=O)[C@H](CCCNC(N)=O)NC(=O)[C@@H](C)NC1=O
B4: CTX-1633 (peptide)
peptide: Ac-C[Aib][Cit][dF]RWC-NH2
modifications: disulfide 1-7
SMILES: CC(=O)N[C@H]1CSSC[C@@H](C(N)=O)NC(=O)[C@H](Cc2c[nH]c3ccccc23)NC(=O)[C@H](CCCNC(=N)N)NC(=O)[C@@H](Cc2ccccc2)NC(=O)[C@H](CCCNC(N)=O)NC(=O)C(C)(C)NC1=O
B5: CTX-1626 (peptide)
peptide: Ac-R[Nle]C[Cit][dF]RFC-NH2
modifications: disulfide 3-8
SMILES: CCCC[C@H](NC(=O)[C@H](CCCNC(=N)N)NC(C)=O)C(=O)N[C@H]1CSSC[C@@H](C(N)=O)NC(=O)[C@H](Cc2ccccc2)NC(=O)[C@H](CCCNC(=N)N)NC(=O)[C@@H](Cc2ccccc2)NC(=O)[C@H](CCCNC(N)=O)NC1=O
B6: CTX-1620 (peptide)
peptide: Ac-R[Nle]C[3Pal][dF]RWC-NH2
modifications: disulfide 3-8
SMILES: CCCC[C@H](NC(=O)[C@H](CCCNC(=N)N)NC(C)=O)C(=O)N[C@H]1CSSC[C@@H](C(N)=O)NC(=O)[C@H](Cc2c[nH]c3ccccc23)NC(=O)[C@H](CCCNC(=N)N)NC(=O)[C@@H](Cc2ccccc2)NC(=O)[C@H](Cc2cccnc2)NC1=O
B7: CTX-1623 (peptide)
peptide: Ac-R[Nle]CR[dPhe(4-Br)]RFC-NH2
modifications: disulfide 3-8
SMILES: CCCC[C@H](NC(=O)[C@H](CCCNC(=N)N)NC(C)=O)C(=O)N[C@H]1CSSC[C@@H](C(N)=O)NC(=O)[C@H](Cc2ccccc2)NC(=O)[C@H](CCCNC(=N)N)NC(=O)[C@@H](Cc2ccc(Br)cc2)NC(=O)[C@H](CCCNC(=N)N)NC1=O
B8: CTX-1630 (peptide)
peptide: Ac-CG[Cit][dF]RWC-NH2
modifications: disulfide 1-7
SMILES: CC(=O)N[C@H]1CSSC[C@@H](C(N)=O)NC(=O)[C@H](Cc2c[nH]c3ccccc23)NC(=O)[C@H](CCCNC(=N)N)NC(=O)[C@@H](Cc2ccccc2)NC(=O)[C@H](CCCNC(N)=O)NC(=O)CNC1=O
B9: CTX-1629 (peptide)
peptide: Ac-CGR[dF]RWC-NH2
modifications: disulfide 1-7
SMILES: CC(=O)N[C@H]1CSSC[C@@H](C(N)=O)NC(=O)[C@H](Cc2c[nH]c3ccccc23)NC(=O)[C@H](CCCNC(=N)N)NC(=O)[C@@H](Cc2ccccc2)NC(=O)[C@H](CCCNC(=N)N)NC(=O)CNC1=O
B10: CTX-1621 (peptide)
peptide: Ac-R[Nle]C[4Pal][dF]RWC-NH2
modifications: disulfide 3-8
SMILES: CCCC[C@H](NC(=O)[C@H](CCCNC(=N)N)NC(C)=O)C(=O)N[C@H]1CSSC[C@@H](C(N)=O)NC(=O)[C@H](Cc2c[nH]c3ccccc23)NC(=O)[C@H](CCCNC(=N)N)NC(=O)[C@@H](Cc2ccccc2)NC(=O)[C@H](Cc2ccncc2)NC1=O
B11: CTX-1634 (peptide)
peptide: Ac-C[Aib]H[dF]RFC-NH2
modifications: disulfide 1-7
SMILES: CC(=O)N[C@H]1CSSC[C@@H](C(N)=O)NC(=O)[C@H](Cc2ccccc2)NC(=O)[C@H](CCCNC(=N)N)NC(=O)[C@@H](Cc2ccccc2)NC(=O)[C@H](Cc2c[nH]cn2)NC(=O)C(C)(C)NC1=O
B12: CTX-1635 (peptide)
peptide: Ac-C[Aib]R[dF]RFC-NH2
modifications: disulfide 1-7
SMILES: CC(=O)N[C@H]1CSSC[C@@H](C(N)=O)NC(=O)[C@H](Cc2ccccc2)NC(=O)[C@H](CCCNC(=N)N)NC(=O)[C@@H](Cc2ccccc2)NC(=O)[C@H](CCCNC(=N)N)NC(=O)C(C)(C)NC1=O
B13: CTX-1632 (peptide)
peptide: Ac-C[Aib]R[dF]RWC-NH2
modifications: disulfide 1-7
SMILES: CC(=O)N[C@H]1CSSC[C@@H](C(N)=O)NC(=O)[C@H](Cc2c[nH]c3ccccc23)NC(=O)[C@H](CCCNC(=N)N)NC(=O)[C@@H](Cc2ccccc2)NC(=O)[C@H](CCCNC(=N)N)NC(=O)C(C)(C)NC1=O
B14: CTX-1636 (peptide)
peptide: Ac-C[Aib][Cit][dF]RFC-NH2
modifications: disulfide 1-7
SMILES: CC(=O)N[C@H]1CSSC[C@@H](C(N)=O)NC(=O)[C@H](Cc2ccccc2)NC(=O)[C@H](CCCNC(=N)N)NC(=O)[C@@H](Cc2ccccc2)NC(=O)[C@H](CCCNC(N)=O)NC(=O)C(C)(C)NC1=O
B15: CTX-1622 (peptide)
peptide: Ac-R[Nle]CR[dF]RFC-NH2
modifications: disulfide 3-8
SMILES: CCCC[C@H](NC(=O)[C@H](CCCNC(=N)N)NC(C)=O)C(=O)N[C@H]1CSSC[C@@H](C(N)=O)NC(=O)[C@H](Cc2ccccc2)NC(=O)[C@H](CCCNC(=N)N)NC(=O)[C@@H](Cc2ccccc2)NC(=O)[C@H](CCCNC(=N)N)NC1=O
B16: CTX-1619 (peptide)
peptide: Ac-R[Nle]C[2Pal][dF]RWC-NH2
modifications: disulfide 3-8
SMILES: CCCC[C@H](NC(=O)[C@H](CCCNC(=N)N)NC(C)=O)C(=O)N[C@H]1CSSC[C@@H](C(N)=O)NC(=O)[C@H](Cc2c[nH]c3ccccc23)NC(=O)[C@H](CCCNC(=N)N)NC(=O)[C@@H](Cc2ccccc2)NC(=O)[C@H](Cc2ccccn2)NC1=O
B17: CTX-1617 (peptide)
peptide: Ac-R[Nle]C[Orn][dF]RWC-NH2
modifications: disulfide 3-8
SMILES: CCCC[C@H](NC(=O)[C@H](CCCNC(=N)N)NC(C)=O)C(=O)N[C@H]1CSSC[C@@H](C(N)=O)NC(=O)[C@H](Cc2c[nH]c3ccccc23)NC(=O)[C@H](CCCNC(=N)N)NC(=O)[C@@H](Cc2ccccc2)NC(=O)[C@H](CCCN)NC1=O

Molecular target: human MC3R (human, UniProt P41968 1-323)
Sequence (P41968 whole entry): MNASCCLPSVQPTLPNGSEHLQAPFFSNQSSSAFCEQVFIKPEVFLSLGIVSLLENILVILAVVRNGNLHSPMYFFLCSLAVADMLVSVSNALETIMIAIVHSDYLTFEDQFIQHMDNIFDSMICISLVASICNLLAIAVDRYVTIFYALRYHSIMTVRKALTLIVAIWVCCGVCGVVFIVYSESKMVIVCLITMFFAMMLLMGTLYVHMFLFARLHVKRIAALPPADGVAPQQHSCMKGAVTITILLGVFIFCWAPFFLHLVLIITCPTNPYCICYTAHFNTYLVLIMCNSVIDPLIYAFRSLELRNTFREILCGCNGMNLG
Assay: cell-based or functional assay

% max activation [%] | cAMP EC50 [nM] | Binder
66 | 5.6 | B1
98 | 3.7 | B2
45 | 92 | B3
45 | 290 | B4
51 | 678 | B5
39 | 58 | B6
62 | 3.9 | B7
35 | 614 | B8
83 | 13 | B9
15 | 36 | B10
94 | 56 | B11
70 | 380 | B12
77 | 19 | B13
44 | 7460 | B14
100 | 13 | B15
84 | 33 | B16
102 | 2.3 | B17

Molecular target: T1, human MC4R receptor (human, UniProt P32245 1-332)
T1 sequence (P32245 whole entry): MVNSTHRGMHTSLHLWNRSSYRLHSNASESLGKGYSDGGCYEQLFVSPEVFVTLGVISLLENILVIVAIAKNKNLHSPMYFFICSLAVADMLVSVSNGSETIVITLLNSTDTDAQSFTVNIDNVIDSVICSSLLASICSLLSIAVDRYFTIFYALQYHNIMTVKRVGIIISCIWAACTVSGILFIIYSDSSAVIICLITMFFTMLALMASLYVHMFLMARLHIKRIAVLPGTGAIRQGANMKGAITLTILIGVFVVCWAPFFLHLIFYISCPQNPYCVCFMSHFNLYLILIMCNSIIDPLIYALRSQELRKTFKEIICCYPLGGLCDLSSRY
Assay: cell-based or functional assay

% max activation [%] | cAMP EC50 [nM] | Binder
83 | 12 | B1
104 | 1.4 | B2
99 | 14 | B3
110 | 2.8 | B4
83 | 425 | B5
91 | 4.7 | B6
73 | 1.7 | B7
102 | 22 | B8
102 | 0.67 | B9
92 | 2.9 | B10
107 | 8.5 | B11
112 | 67 | B12
105 | 0.51 | B13
102 | 791 | B14
101 | 41 | B15
99 | 2.6 | B16
102 | 0.21 | B17

Molecular target: T1, human MC4R receptor
Assay: cell-based or functional assay
Remark: another data set of the same source

MC4R selectivity vs MC1R | MC4R selectivity vs MC3R | Binder
0.15 | 0.47 | B1
9.33 | 2.47 | B2
191 | 6.37 | B3
942 | 104 | B4
3.05 | 1.6 | B5
47 | 12 | B6
1.08 | 2.29 | B7
1820 | 28 | B8
15 | 19 | B9
82 | 13 | B10
4.02 | 6.68 | B11
1.19 | 5.7 | B12
3.18 | 36 | B13
> 12 | 9.44 | B14
0.39 | 0.32 | B15
86 | 13 | B16
1.75 | 11 | B17
